Measured values published in the supplement of paper PMC10567573.

B1: FOXJ1 (parent)
chain: SAIYKWITDNFCYFRHADPTWQNS

Variants of: B1
Assay: protein stability index of a GFP-peptide fusion (GPS, HEK-293T) (PSI 1-6); higher = more stable
Conditions: c terminus: a fixed tail appended
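Note: lentivirally expressed fusions sorted by FACS into six bins by GFP to DsRed ratio, PSI derived from sequencing read proportions per bin multiplied by bin number.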

| Variant | protein stability index |
| --- | --- |
| SAIYKWITDNFCYFSHADPTWQNS | 2.76 |
| SAIYKWITDNFCYFHHADPTWQNS | 5.96 |
| SAIYKWITDNFCYFGHADPTWQNS | 3.31 |
| SAIYKWITDNFCYFIHADPTWQNS | 2.32 |
| SAIYKWITDNFCYFWHADPTWQNS | 2.97 |
| SAIYKWITDNFCYFLHADPTWQNS | 2.95 |
| SAIYKWITDNFCYFEHADPTWQNS | 4.29 |
| SGIYKWITDNFCYFRHADPTWQNS | 2.87 |
| SWIYKWITDNFCYFRHADPTWQNS | 2.53 |
| SKIYKWITDNFCYFRHADPTWQNS | 2.72 |
| SRIYKWITDNFCYFRHADPTWQNS | 2.52 |
| SHIYKWITDNFCYFRHADPTWQNS | 3.1 |
| SFIYKWITDNFCYFRHADPTWQNS | 4.1 |
| SIIYKWITDNFCYFRHADPTWQNS | 3.56 |
| SLIYKWITDNFCYFRHADPTWQNS | 2.45 |
| SEIYKWITDNFCYFRHADPTWQNS | 1.44 |
| SAIYKWITDNFCYFRHADPTWSNS | 4.33 |
| SAIYKWITDNFCYFRHADPTWGNS | 2.93 |
| SAIYKWITDNFCYFRHADPTWENS | 2.19 |
| SAIYKWITDNFCYFRHADPTWNNS | 4.82 |
| SAIYKWITDNFCYFRHADPTWHNS | 3.75 |
| SAIYKWITDNFCYFRHADPTWMNS | 3.06 |
| SAIYKWITDNFCYFRHADPTWDNS | 2.56 |
| SAIYKWITDNFCYFRHADPTCQNS | 2.94 |

| Variant | protein stability index |
| --- | --- |
| SAIYKWITDNFCYFRHADPTTQNS | 4.47 |
| SAIYKWITDNFCYFRHADPTQQNS | 2.9 |
| SAIYKWITDNFCYFRHADPTRQNS | 2.27 |
| SAIYKWITDNFCYFRHADPTAQNS | 3.28 |
| SAIYKWITDNFCYFRHADPTEQNS | 3.54 |
| SAIYKWITDNFCYFRHADPTKQNS | 3.58 |
| SAIYKWITDNFCYFRHADPTSQNS | 1.61 |
| SAIYKWITDTFCYFRHADPTWQNS | 2.05 |
| SAIYKWITDWFCYFRHADPTWQNS | 2.06 |
| SAIYKWITDYFCYFRHADPTWQNS | 3.33 |
| SAIYKWITDFFCYFRHADPTWQNS | 1.81 |
| SAIYKWITDQFCYFRHADPTWQNS | 2.11 |
| SAIYKWITDKFCYFRHADPTWQNS | 2.34 |
| SAIYKWITDIFCYFRHADPTWQNS | 2.79 |
| SAIYWWITDNFCYFRHADPTWQNS | 2.78 |
| SAIYIWITDNFCYFRHADPTWQNS | 3.27 |
| SAIYNWITDNFCYFRHADPTWQNS | 3.19 |
| SAIYHWITDNFCYFRHADPTWQNS | 3.79 |
| SAIYTWITDNFCYFRHADPTWQNS | 2.46 |
| SAIYYWITDNFCYFRHADPTWQNS | 3.64 |
| SAIYFWITDNFCYFRHADPTWQNS | 2.91 |
| SAIYSWITDNFCYFRHADPTWQNS | 3.33 |
| SAIYAWITDNFCYFRHADPTWQNS | 2.97 |
| SAIYEWITDNFCYFRHADPTWQNS | 1.81 |

| Variant | protein stability index |
| --- | --- |
| SAIYPWITDNFCYFRHADPTWQNS | 1.26 |
| SAIYKWITDNFCYGRHADPTWQNS | 2.33 |
| SAIYKWITDNFCYMRHADPTWQNS | 2.21 |
| SAIYKWITDNFCYCRHADPTWQNS | 3.92 |
| SAIYKWITDNFCYPRHADPTWQNS | 2.04 |
| SAIYKWITDNFCYVRHADPTWQNS | 3.33 |
| SAIYKWITDNFCYRRHADPTWQNS | 1.75 |
| SAIYKWITDNFCYKRHADPTWQNS | 2.58 |
| SAIYKWITDNFCYNRHADPTWQNS | 2.14 |
| SAIYKWITDNFCYYRHADPTWQNS | 2.97 |
| SAIYKCITDNFCYFRHADPTWQNS | 2.1 |
| SAIYKQITDNFCYFRHADPTWQNS | 2.07 |
| SAIYKFITDNFCYFRHADPTWQNS | 2.43 |
| SAIYKYITDNFCYFRHADPTWQNS | 3.11 |
| SAIYKEITDNFCYFRHADPTWQNS | 2.27 |
| SAIYKHITDNFCYFRHADPTWQNS | 2.2 |
| SAIYKMITDNFCYFRHADPTWQNS | 3.3 |
| SAIYKSITDNFCYFRHADPTWQNS | 1.71 |
| SAIYKDITDNFCYFRHADPTWQNS | 2.12 |
| SAIYKVITDNFCYFRHADPTWQNS | 1.49 |
| SAIYKNITDNFCYFRHADPTWQNS | 2.71 |
| SAIYKWITDNFCYFRHADPTWQPS | 3.02 |
| SAIYKWITDNFCYFRHADPTWQHS | 4.01 |
| SAIYKWITDNFCYFRHADPTWQFS | 3.19 |

| Variant | protein stability index |
| --- | --- |
| SAIYKWITDNFCYFRHADPTWQYS | 3.52 |
| SAIYKWITDNFCYFRHADPTWQAS | 2.99 |
| SAIYKWITDNFCYFRHADPTWQMS | 2.75 |
| SAIYKWITDNFCYFRHADPTWQKS | 2.13 |
| SAIYKWITDNFCYFRHADPTWQTS | 3.31 |
| SAIYKWITDNFCYFRHADPTWQSS | 2.62 |
| SAIYKWITDNFCYFRHADPTWQCS | 2.97 |
| SAIYKWITDNFCYFRHADPTWQRS | 3.24 |
| SAIYKWITDNFCYFRHADPTWQWS | 3.47 |
| SAIIKWITDNFCYFRHADPTWQNS | 2.52 |
| SAISKWITDNFCYFRHADPTWQNS | 2.68 |
| SAICKWITDNFCYFRHADPTWQNS | 2.04 |
| SAIFKWITDNFCYFRHADPTWQNS | 2.59 |
| SAIAKWITDNFCYFRHADPTWQNS | 1.47 |
| SAITKWITDNFCYFRHADPTWQNS | 1.52 |
| SAIQKWITDNFCYFRHADPTWQNS | 2.97 |
| SAIEKWITDNFCYFRHADPTWQNS | 2.99 |
| SAIDKWITDNFCYFRHADPTWQNS | 2.24 |
| SAIYKWIRDNFCYFRHADPTWQNS | 2.51 |
| SAIYKWIVDNFCYFRHADPTWQNS | 2.13 |
| SAIYKWIQDNFCYFRHADPTWQNS | 2.78 |
| SAIYKWIFDNFCYFRHADPTWQNS | 3.33 |
| SAIYKWIDDNFCYFRHADPTWQNS | 3.49 |
| SAIYKWATDNFCYFRHADPTWQNS | 2.02 |

| Variant | protein stability index |
| --- | --- |
| SAIYKWMTDNFCYFRHADPTWQNS | 3.88 |
| SAIYKWFTDNFCYFRHADPTWQNS | 2.87 |
| SAIYKWPTDNFCYFRHADPTWQNS | 2.1 |
| SAIYKWETDNFCYFRHADPTWQNS | 2.3 |
| SAIYKWNTDNFCYFRHADPTWQNS | 1.93 |
| SAIYKWQTDNFCYFRHADPTWQNS | 1.36 |
| SAIYKWVTDNFCYFRHADPTWQNS | 2.81 |
| SAIYKWYTDNFCYFRHADPTWQNS | 1.86 |
| SAIYKWTTDNFCYFRHADPTWQNS | 1.66 |
| SAIYKWSTDNFCYFRHADPTWQNS | 2.81 |
| SAIYKWITDNFCYFRHQDPTWQNS | 2.7 |
| SAIYKWITDNFCYFRHHDPTWQNS | 3.05 |
| SAIYKWITDNFCYFRHTDPTWQNS | 2.16 |
| SAIYKWITDNFCYFRHNDPTWQNS | 3.14 |
| SAIYKWITDNFCYFRHKDPTWQNS | 2.1 |
| SAIYKWITDNFCYFRHANPTWQNS | 3.12 |
| SAIYKWITDNFCYFRHACPTWQNS | 2.02 |
| SAIYKWITDNFCYFRHAEPTWQNS | 3.65 |
| SAIYKWITDNFCYFRHAYPTWQNS | 2.95 |
| SAIYKWITDNFCYFRHARPTWQNS | 2.77 |
| SAIYKWITDNFCYFRHAAPTWQNS | 3.1 |
| SAIYKWITDNFEYFRHADPTWQNS | 1.95 |
| SAIYKWITDNFGYFRHADPTWQNS | 2.61 |
| SAIYKWITDNFSYFRHADPTWQNS | 2.78 |

| Variant | protein stability index |
| --- | --- |
| SAIYKWITDNFIYFRHADPTWQNS | 2.77 |
| SAIYKWITDNFFYFRHADPTWQNS | 2.67 |
| SAIYKWITDNFPYFRHADPTWQNS | 1.97 |
| SAIYKWITDNFLYFRHADPTWQNS | 3.4 |
| SAIYKWITDNFHYFRHADPTWQNS | 3.13 |
| SAIYKWITDNFCYFRHADPTWQNE | 2.97 |
| SAIYKWITDNFCYFRHADPTWQNW | 2.37 |
| SAIYKWITDNFCYFRHADPTWQNT | 2.96 |
| SAIYKWITDNFCYFRHADCTWQNS | 2.7 |
| SAIYKWITDNFCYFRHADSTWQNS | 2.63 |
| SAIYKWITDNFCYFRHADQTWQNS | 3.21 |
| SAIYKWITDNFCYFRHADLTWQNS | 1.54 |
| SAIYKWITDNFCYFRHADVTWQNS | 3.02 |
| SAIYKWITDNFCYFRHADWTWQNS | 2.35 |
| SAIYKWITDNFCYFRHADRTWQNS | 3.65 |
| SAIYKWITDNFCYFRHADETWQNS | 3.59 |
| SAIYKWITDNFCYFRHADNTWQNS | 2.77 |
| SAIYKWITDNFCYFRHADMTWQNS | 4.18 |
| SAIYKWITINFCYFRHADPTWQNS | 4 |
| SAIYKWITQNFCYFRHADPTWQNS | 2.67 |
| SAIYKWITSNFCYFRHADPTWQNS | 3.04 |
| SAIYKWITYNFCYFRHADPTWQNS | 2.56 |
| SAIYKWITTNFCYFRHADPTWQNS | 3.43 |
| SAIYKWITFNFCYFRHADPTWQNS | 3.55 |

| Variant | protein stability index |
| --- | --- |
| SAIYKWITGNFCYFRHADPTWQNS | 3.51 |
| SAHYKWITDNFCYFRHADPTWQNS | 1.98 |
| SAYYKWITDNFCYFRHADPTWQNS | 3.11 |
| SADYKWITDNFCYFRHADPTWQNS | 2.83 |
| SANYKWITDNFCYFRHADPTWQNS | 1.6 |
| SAPYKWITDNFCYFRHADPTWQNS | 2.06 |
| SASYKWITDNFCYFRHADPTWQNS | 1.21 |
| SAAYKWITDNFCYFRHADPTWQNS | 2.42 |
| SAKYKWITDNFCYFRHADPTWQNS | 1.84 |
| SACYKWITDNFCYFRHADPTWQNS | 4.05 |
| SAIYKWITDNPCYFRHADPTWQNS | 1.79 |
| SAIYKWITDNYCYFRHADPTWQNS | 3.4 |
| SAIYKWITDNSCYFRHADPTWQNS | 3.59 |
| SAIYKWITDNNCYFRHADPTWQNS | 2.05 |
| SAIYKWITDNMCYFRHADPTWQNS | 3.18 |
| SAIYKWITDNTCYFRHADPTWQNS | 2.83 |
| SAIYKWITDNHCYFRHADPTWQNS | 2.71 |
| WAIYKWITDNFCYFRHADPTWQNS | 3.8 |
| IAIYKWITDNFCYFRHADPTWQNS | 4.71 |
| LAIYKWITDNFCYFRHADPTWQNS | 2.55 |
| AAIYKWITDNFCYFRHADPTWQNS | 3.31 |
| HAIYKWITDNFCYFRHADPTWQNS | 2.92 |
| SAIYKWITDNFCTFRHADPTWQNS | 2.96 |
| SAIYKWITDNFCDFRHADPTWQNS | 1.8 |

| Variant | protein stability index |
| --- | --- |
| SAIYKWITDNFCKFRHADPTWQNS | 1.86 |
| SAIYKWITDNFCPFRHADPTWQNS | 2.18 |
| SAIYKWITDNFCFFRHADPTWQNS | 2.47 |
| SAIYKWITDNFCHFRHADPTWQNS | 3.23 |
| SAIYKWITDNFCRFRHADPTWQNS | 1.8 |
| SAIYKWITDNFCWFRHADPTWQNS | 3.59 |
| SAIYKWITDNFCVFRHADPTWQNS | 3 |
| SAIYKWITDNFCLFRHADPTWQNS | 1.87 |
| SAIYKWITDNFCQFRHADPTWQNS | 1.57 |
| SAIYKWITDNFCYFRKADPTWQNS | 1.7 |
| SAIYKWITDNFCYFRIADPTWQNS | 1.75 |
| SAIYKWITDNFCYFRRADPTWQNS | 5.03 |
| SAIYKWITDNFCYFRDADPTWQNS | 2.33 |
| SAIYKWITDNFCYFRQADPTWQNS | 3.32 |
| SAIYKWITDNFCYFRWADPTWQNS | 1.82 |
| SAIYKWITDNFCYFRGADPTWQNS | 2.72 |
| SAIYKWITDNFCYFRFADPTWQNS | 3.57 |
| SAIYKWITDNFCYFRHADPFWQNS | 1.78 |
| SAIYKWITDNFCYFRHADPIWQNS | 2.42 |
| SAIYKWITDNFCYFRHADPLWQNS | 2.08 |
